In this test the target is Active phosphorylated His6-tagged ERK2 WT (rat (p-0033 says mouse), UniProt P63086 3-358, phosphorylated (active form; sites not given)).

One molecule from PMC11982978 (2025) can be followed below.

Square brackets hold non-standard residues; d marks the D form. Ends that are not written are not given here.

Usually IC50 stands for the concentration needed to halve the response being measured. A low value points to greater potency in that assay. [dL][dC][dA][dR][dR]G[dL][dY][dC][dL][dS][dL][dD][dH] (cysteine pairing not given here) [FAAP100 D-peptide] gave an IC50 of 92 µM.
